Assays:
[1] = PET hydrolysis product formed (TPA+MHET+BHET, UV-Vis) per mg enzyme (mmol/mg enzyme); higher = more PET depolymerisation activity; extreme values may be limits of the assay; details: 2 h
Experimental: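 Purified PET hydrolases (His-SUMO cleaved, E. coli C41(DE3) small-scale expression), 2.5 ug enzyme on 3.5 mg amorphous PET film (aFilm) or crystalline PET powder (cryPow) in 0.5 mL of 50 mM buffer (NaCitrate pH 4.5/5.5, NaPhosphate 6.5/7.5, glycine 8.5/9.5) at 60 or 70 C with shaking for 2 h. Soluble aromatic products (TPA+MHET+BHET) were quantified by UV-Vis at 260/280 nm, blank-subtracted against the no-enzyme control, and normalised per mg enzyme; duplicate reactions.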

[2] = MHET released, HPLC; higher = more MHET released; extreme values may be limits of the assay; details: 24 h
Experimental: (§1)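 Purified PET hydrolases, 2.5 ug enzyme on 3.5 mg amorphous PET film (aFilm) or crystalline PET powder (cryPow) in 0.5 mL of 50 mM buffer (NaCitrate pH 4.5/5.5, NaPhosphate 6.5/7.5, glycine 8.5/9.5) at 60 or 70 C with shaking for 24 h. Total aromatic product by UV-Vis (260/280 nm, blank-subtracted, normalised per mg enzyme) and individual TPA, MHET, BHET concentrations by UHPLC-DAD at 240 nm; duplicate reactions.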

[3] = BHET released, HPLC; higher = more BHET released; extreme values may be limits of the assay; details: 24 h
Experimental: as §1

[4] = PET hydrolysis product formed (TPA+MHET+BHET, UV-Vis) per mg enzyme (mmol/mg enzyme); higher = more PET depolymerisation activity; extreme values may be limits of the assay; details: 24 h
Experimental: as §1

SNPYQRGPNPTRSALTATGPFSVATYTVSRLLVSGFGGGVIYYPTGTSLTFGGIAMSPGYTADASSLAWLGRRLASHGFVVLVINTNSRFDGPDSRARQLSAALNYLRTSSPSAVRARLDANRLAVAGHSMGGGGTLRIAEQNPSLKAAVPLTPWHPDKTFNTSVPVLIVGAQADTVAPVSQHAIPFYQNLPSTTPKVYVELCNASHIAPNSPNAAISVYTISWMKLWVDNDTRYRQFLCNVNDPALCDFRTNNRHCQ [LCC-ICCG I6M]
Details | BHET released, [3] [mM] | MHET released, [2] [mM] | PET hydrolysis product formed, [1] | PET hydrolysis product formed, [4]
PET substrate: aFilm, 60 °C, pH 4.5 | 0 | 0.067 | 0 | 0.0326
PET substrate: aFilm, 60 °C, pH 5.5 | 0.00212 | 0.339 | 0.0198 | 0.147
PET substrate: aFilm, 60 °C, pH 6.5 | 0 | 0.534 | 0.0378 | 0.223
PET substrate: aFilm, 60 °C, pH 7.5 | 0.0371 | 3.6 | 0.0723 | 1.32
PET substrate: aFilm, 60 °C, pH 8.5 | 0.00219 | 0.333 | 0.0336 | 0.169
PET substrate: aFilm, 60 °C, pH 9.5 | 0 | 1.14 | 0.0585 | 0.577
PET substrate: aFilm, 70 °C, pH 4.5 | 0 | 0 | 0 | 0
PET substrate: aFilm, 70 °C, pH 5.5 | 0.00615 | 0.236 | 0.0242 | 0.105
PET substrate: aFilm, 70 °C, pH 6.5 | 0 | 0.211 | 0.057 | 0.0963
PET substrate: aFilm, 70 °C, pH 7.5 | 0 | 1.51 | 0.149 | 0.788
PET substrate: aFilm, 70 °C, pH 8.5 | 0 | 0.164 | 0.021 | 0.0775
PET substrate: aFilm, 70 °C, pH 9.5 | 0 | 0.409 | 0.0849 | 0.402
PET substrate: cryPow, 60 °C, pH 4.5 | 0.00411 | 0.0591 | 0.0118 | 0.01995
PET substrate: cryPow, 60 °C, pH 5.5 | 0 | 0.178 | 0.031 | 0.0583
PET substrate: cryPow, 60 °C, pH 6.5 | 0 | 0.22 | 0.0457 | 0.0726
PET substrate: cryPow, 60 °C, pH 7.5 | 0 | 0.206 | 0.035 | 0.0808
PET substrate: cryPow, 60 °C, pH 8.5 | 0 | 0.113 | 0.0317 | 0.0461
PET substrate: cryPow, 60 °C, pH 9.5 | 0 | 0.0594 | 0.0174 | 0.0598
PET substrate: cryPow, 70 °C, pH 4.5 | 0 | 0 | 0 | 0
PET substrate: cryPow, 70 °C, pH 5.5 | 0 | 0.0931 | 0.0164 | 0.0302
PET substrate: cryPow, 70 °C, pH 6.5 | 0 | 0.136 | 0.0289 | 0.05
PET substrate: cryPow, 70 °C, pH 7.5 | 0 | 0.275 | 0.0329 | 0.122
PET substrate: cryPow, 70 °C, pH 8.5 | 0 | 0.13 | 0.0203 | 0.0495
PET substrate: cryPow, 70 °C, pH 9.5 | 0 | 0.0223 | 0.0239 | 0.0468

SNPYQRGPNPTRSALTADGPFSVATYTVSRLSVSGFGGGVIYYPTGTSLTFGGIAMSPGYTADASSLAWLGRRLASHGFVVLVINTNSRFDGPDSRASQLSAALNYLRTSSPSAVRARLDANRLAVAGHSMGGGGTLRIAEQNPSLKAAVPLTPWHTDKTFNTSVPVLIVGAEADTVAPVSQHAIPFYQNLPSTTPKVYVELCNASHIAPNSNNAAISVYTISWMKLWVDNDTRYRQFLCNVNDPALCDFRTNNRHCQ [LCC-ICCG]
Details | BHET released, [3] [mM] | MHET released, [2] [mM] | PET hydrolysis product formed, [1] | PET hydrolysis product formed, [4]
PET substrate: aFilm, 60 °C, pH 4.5 | 0 | 0.00708 | 0 | 0.00176
PET substrate: aFilm, 60 °C, pH 5.5 | 0.00902 | 0.284 | 0.0182 | 0.126
PET substrate: aFilm, 60 °C, pH 6.5 | 0.0136 | 0.773 | 0.0377 | 0.327
PET substrate: aFilm, 60 °C, pH 7.5 | 0.0155 | 3.92 | 0.0795 | 1.42
PET substrate: aFilm, 60 °C, pH 8.5 | 0 | 0.271 | 0.0461 | 0.142
PET substrate: aFilm, 60 °C, pH 9.5 | 0.039 | 2.19 | 0.0968 | 0.885
PET substrate: aFilm, 70 °C, pH 4.5 | 0 | 0 | 0 | 0
PET substrate: aFilm, 70 °C, pH 5.5 | 0.00749 | 0.246 | 0.0371 | 0.109
PET substrate: aFilm, 70 °C, pH 6.5 | 0 | 0.356 | 0.0873 | 0.165
PET substrate: aFilm, 70 °C, pH 7.5 | 0.0808 | 4.35 | 0.226 | 1.92
PET substrate: aFilm, 70 °C, pH 8.5 | 0 | 0.221 | 0.0682 | 0.107
PET substrate: aFilm, 70 °C, pH 9.5 | 0 | 1.87 | 0.252 | 0.901
PET substrate: cryPow, 60 °C, pH 4.5 | 0 | 0.0148 | 0 | 0
PET substrate: cryPow, 60 °C, pH 5.5 | 0.00462 | 0.203 | 0.0406 | 0.0652
PET substrate: cryPow, 60 °C, pH 6.5 | 0 | 0.27 | 0.045 | 0.09
PET substrate: cryPow, 60 °C, pH 7.5 | 0 | 0.507 | 0.0768 | 0.184
PET substrate: cryPow, 60 °C, pH 8.5 | 0 | 0.198 | 0.0339 | 0.0728
PET substrate: cryPow, 60 °C, pH 9.5 | 0 | 0.165 | 0.0379 | 0.125
PET substrate: cryPow, 70 °C, pH 4.5 | 0 | 0 | 0 | 0
PET substrate: cryPow, 70 °C, pH 5.5 | 0 | 0.1 | 0.0205 | 0.031
PET substrate: cryPow, 70 °C, pH 6.5 | 0.0013 | 0.208 | 0.0349 | 0.0781
PET substrate: cryPow, 70 °C, pH 7.5 | 0 | 0.433 | 0.0598 | 0.2
PET substrate: cryPow, 70 °C, pH 8.5 | 0 | 0.173 | 0.0285 | 0.0667
PET substrate: cryPow, 70 °C, pH 9.5 | 0 | 0.1 | 0.0357 | 0.131
